The target in the experiment is T1, human BCMA on CHO cells (human).
T1 chain: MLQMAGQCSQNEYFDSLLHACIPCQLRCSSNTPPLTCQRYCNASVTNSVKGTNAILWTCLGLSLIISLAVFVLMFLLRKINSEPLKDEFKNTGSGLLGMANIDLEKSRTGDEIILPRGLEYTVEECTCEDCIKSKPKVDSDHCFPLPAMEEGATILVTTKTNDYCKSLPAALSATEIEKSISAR
Kind of experiment: FACS. In general terms: In flow cytometry, cells or beads pass a laser one at a time.

Residue numbers refer to the chain shown, from its start.

By EC50 is commonly meant the concentration needed to bring the measured effect to its halfway point. A higher EC50 goes with a less potent agent.

B1: P1AG7207 BCMA arm (antibody, V domains shown)
VH: EVQLLESGGGLVQPGGSLRLSCAASGFTFSNAWMDWVRQAPGKGLEWVSQITAKSNNYATYYADSVKGRFTISRDNSKNTLYLQMNSLRAEDTAVYYCTDDGYHWGQGTLVTVSS
VL: DIQMTQSPSSLSASVGDRVTITCRASEDIRNGLAWYQQKPGKAPKLLIYNANSLHTGVPSRFSGSGSGTDFTLTISSLQPEDFATYYCEDTSKYPYTFGQGTKLEIK
For the molecule B1, the EC50 amounted to 16.3 nM.

B2: P1AG7196 BCMA arm (antibody, V domains shown)
VH: B1 VH
VL: B1 VL
Take B2: the EC50 turned out to be 18.1 nM.

B3: BCMA (PR)-CD28v8 P1AF7062, BCMA arm (antibody, V domains shown)
VH: EVQLLESGGGLVQPGGSLRLSCAASGFTFSSYAMNWVRQAPGKGLEWVSAITASGGSTYYADSVKGRFTISRDNSKNTLYLQMNSLRAEDTAVYYCARYWPMSLWGQGTLVTVSS
VL: EIVLTQSPGTLSLSPGERATLSCRASQSVSAYYLAWYQQKPGQAPRLLMYDASIRATGIPDRFSGSGSGTDFTLTISRLEPEDFAVYYCQQYERWPLTFGQGTKVEIKR
The molecule B3 registered an EC50 of 5.55 nM.

B4: BCMA (PR)-CD28v15 P1AE9053, BCMA arm (antibody, V domains shown)
VH: B3 VH
VL: B3 VL
B4: a half-maximal response (EC50) required 7.63 nM.

B5: P1AG7285 BCMA arm (antibody, V domains shown)
VH: QVQLVQSGAEVKKPGASVKVSCKASGYTFTNYWMHWVRQAPGQGLEWMGIIHPNSGSTNYNEKFQGRVTMTRDTSTSTVYMELSSLRSEDTAVYYCARGIYDYPFAYWGQGTLVTVSS
VL: DIQMTQSPSSLSASVGDRVTITCRASESVSIHGTHLMHWYQQKPGKAPKLLIYAASSLQSGVPSRFSGSGSETDFTLTISSLQPEDFATYYCQQSIEDPYTFGGGTKVEIK
Regarding B5, the EC50 came to 25.6 nM.

B6: P1AG7200 BCMA arm (antibody, V domains shown)
VH: B5 VH
VL: B5 VL with S57N, Q59E, E72G
B6 yielded an EC50 of 13.8 nM.

B7: P1AG7215 BCMA arm (antibody, V domains shown)
VH: B5 VH
VL: B5 VL with S57N, Q59E, E72G
In the case of B7, the response was half-maximal at 16.5 nM (EC50).

B8: P1AG7191 BCMA arm (antibody, V domains shown)
VH: B5 VH
VL: B5 VL
B8 gave an EC50 of 19.8 nM.

The record behind these values is patent US20260374889 (published 2026).
